We go through one substance from patent US20110300138A1 (published 2011).

The test has as its target TSHR with Asp160 mutated to Lys, expressed in CHO cells (human) (UniProt P16473). Briefly: cell-based or functional assay.

Sequence of TSHR with Asp160 mutated to Lys, expressed in CHO cells (human) (P16473 other isoform, or with tags, fused parts or gaps limits assumed, change not shown): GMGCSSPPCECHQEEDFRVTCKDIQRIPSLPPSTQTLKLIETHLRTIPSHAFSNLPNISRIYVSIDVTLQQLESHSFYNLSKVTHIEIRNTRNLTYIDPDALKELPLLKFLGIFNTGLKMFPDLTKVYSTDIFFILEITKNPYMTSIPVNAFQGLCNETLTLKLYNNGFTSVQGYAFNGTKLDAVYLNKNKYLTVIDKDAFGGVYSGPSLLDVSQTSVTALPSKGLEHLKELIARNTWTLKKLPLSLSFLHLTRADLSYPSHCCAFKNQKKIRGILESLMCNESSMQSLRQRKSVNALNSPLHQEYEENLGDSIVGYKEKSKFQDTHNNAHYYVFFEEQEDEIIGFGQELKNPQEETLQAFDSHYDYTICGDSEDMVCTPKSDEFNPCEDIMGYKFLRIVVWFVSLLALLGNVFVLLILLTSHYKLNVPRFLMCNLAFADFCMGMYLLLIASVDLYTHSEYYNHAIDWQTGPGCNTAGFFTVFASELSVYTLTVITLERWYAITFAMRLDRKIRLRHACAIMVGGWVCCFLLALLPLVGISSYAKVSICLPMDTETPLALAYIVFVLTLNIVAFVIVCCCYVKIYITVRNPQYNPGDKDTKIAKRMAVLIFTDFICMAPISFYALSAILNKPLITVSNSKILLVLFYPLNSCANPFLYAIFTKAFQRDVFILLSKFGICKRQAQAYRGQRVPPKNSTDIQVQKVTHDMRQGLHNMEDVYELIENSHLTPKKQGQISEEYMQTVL

In the case of 5B3 IgG (antibody), the % inhibition of TSH stimulation (stimulator given as M22), mutated TSHR; 5B3 10 µg/mL came out at 0%; the % inhibition of TSH stimulation (stimulator given as M22), mutated TSHR; 5B3 100 µg/mL stood at 11%; the Mutated/wild type (%) of cyclic AMP produced; test sample: 5B3 10 µg/mL + M22 is 69%; the Mutated/wild type (%) of cyclic AMP produced; test sample: 5B3 100 µg/mL + M22 came to 60%.
